The values below come from patent US20260098080A1, “A MODIFIED PROTEIN SCAFFOLD AND USE THEREOF” (EVOLVERITAS BIOTECHNOLÓGIAI KORLÁTOLT FELELOSSÉGU TÁRSASÁG, priority 2022, published 2026).

One data set deals with human MASP-2 (Homo sapiens, UniProt O00187). The conditions noted are these: as disclosed in WO2018127719, read-out: inhibitory binding constant (KI) on human MASP-2, cited from earlier work.
The next data set addresses rat MASP-2 (Rattus norvegicus, UniProt Q9JJS8). The following applies: as disclosed in WO2018127719; cited from earlier work.
The next data set relates to extrinsic pathway. Put plainly: Human blood coagulation: prothrombin time. The data set is classed as biochemical. The conditions noted are these: human plasma, duplicates 21/1 and 21/2. Here is the method:
(§1) The effect of the proteins of the present invention on the blood coagulation process was tested in three standard assays, the thrombin time, testing any direct effects on thrombin; prothrombin time, testing any effects on the extrinsic pathway; and the activated partial thromboplastin time, testing any effects on the intrinsic pathway.
(§2) Blood was collected from a healthy individual by vein puncture after informed consent. The blood was treated with sodium-citrate (3.8% wt/vol) and centrifuged. All three assays were performed on the automated instrument Sysmex CA-1500 (Sysmex) with Innovin reagent (Dale Behring, Marburg, Germany).
(§3) The proteins of the present invention were applied in a twofold serial dilution in 1.4% wt/vol sodium bicarbonate (vehicle) with the highest final concentration being 10 μM (3.4 μM for EVO24 (SEQ ID NO: 15)) and the lowest final concentration being 156 nM (53 nM for EVO24 (SEQ ID NO: 15)).
(§4) All measurements were done in duplicates and a vehicle control was also tested. The highest concentration value is about 5 orders of magnitudes higher than the KD values of the four proteins of the present invention on human MASP-2.

Another data set deals with thrombin. In words: Human blood coagulation: thrombin time. It counts as biochemical. The following applies: human plasma, duplicates 21/1 and 21/2. How it is done: as §1, §2, §3, §4
The test system of the next data set is intrinsic pathway. In words: Human blood coagulation: activated partial thromboplastin time. It counts as biochemical. The following applies: human plasma, duplicates 21/1 and 21/2. Here is the method: as §1, §2, §3, §4
For a further data set, the target named is fIXa (human, UniProt P00740 47-461). In words: cell-based or functional assay.
fIXa, sequence (P00740 47-461 limits assumed): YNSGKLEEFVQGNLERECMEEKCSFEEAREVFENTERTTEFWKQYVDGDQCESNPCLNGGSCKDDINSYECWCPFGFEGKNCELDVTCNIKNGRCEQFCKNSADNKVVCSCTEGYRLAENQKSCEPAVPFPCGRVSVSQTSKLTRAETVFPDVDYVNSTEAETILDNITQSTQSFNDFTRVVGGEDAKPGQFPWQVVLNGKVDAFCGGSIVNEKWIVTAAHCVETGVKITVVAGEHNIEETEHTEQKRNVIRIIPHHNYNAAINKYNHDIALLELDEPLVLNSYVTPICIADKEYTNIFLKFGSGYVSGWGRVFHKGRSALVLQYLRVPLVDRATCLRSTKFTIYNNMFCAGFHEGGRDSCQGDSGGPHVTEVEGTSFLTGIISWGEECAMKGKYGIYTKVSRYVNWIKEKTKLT
Another data set has as its target T1, MASP-1 (UniProt P48740 298-699, limits assumed).
T1 sequence (looked up): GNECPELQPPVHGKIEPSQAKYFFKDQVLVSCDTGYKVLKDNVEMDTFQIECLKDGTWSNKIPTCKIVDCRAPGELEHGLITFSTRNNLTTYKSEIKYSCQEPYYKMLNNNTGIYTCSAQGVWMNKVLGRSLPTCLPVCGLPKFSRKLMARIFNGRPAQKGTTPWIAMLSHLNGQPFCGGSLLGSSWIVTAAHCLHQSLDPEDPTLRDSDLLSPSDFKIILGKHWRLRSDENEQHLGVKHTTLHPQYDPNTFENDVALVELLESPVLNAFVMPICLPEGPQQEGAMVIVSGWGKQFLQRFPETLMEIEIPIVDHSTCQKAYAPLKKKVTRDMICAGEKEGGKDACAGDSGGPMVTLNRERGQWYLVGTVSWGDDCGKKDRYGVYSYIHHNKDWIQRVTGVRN
In words: cell-based or functional assay.

Another data set deals with T2, fXIIa (human, UniProt P00748 20-615, limits assumed).
T2 sequence (looked up): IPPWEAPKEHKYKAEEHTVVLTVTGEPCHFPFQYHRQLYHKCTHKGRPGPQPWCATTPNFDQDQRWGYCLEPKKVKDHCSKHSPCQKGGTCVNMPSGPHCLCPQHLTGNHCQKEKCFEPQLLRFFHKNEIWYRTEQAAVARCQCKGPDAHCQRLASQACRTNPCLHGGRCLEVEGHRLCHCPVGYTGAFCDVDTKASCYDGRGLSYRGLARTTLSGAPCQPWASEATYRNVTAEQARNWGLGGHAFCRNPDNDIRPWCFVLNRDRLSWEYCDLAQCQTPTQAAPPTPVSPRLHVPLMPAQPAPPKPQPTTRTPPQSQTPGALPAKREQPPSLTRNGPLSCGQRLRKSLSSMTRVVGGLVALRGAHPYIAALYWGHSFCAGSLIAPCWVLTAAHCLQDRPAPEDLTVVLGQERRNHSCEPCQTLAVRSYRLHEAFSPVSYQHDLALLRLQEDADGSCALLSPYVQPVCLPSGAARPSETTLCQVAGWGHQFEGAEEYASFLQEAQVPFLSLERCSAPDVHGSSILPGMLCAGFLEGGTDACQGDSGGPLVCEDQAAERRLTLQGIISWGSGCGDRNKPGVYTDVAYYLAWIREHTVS
In words: cell-based or functional assay.

Another data set concerns the target fXIa (human, UniProt P03951 19-625). Put plainly: cell-based or functional assay.
In data set [1] the target is T3, rat MASP-2cf CCP1-CCP2-SP (rat, UniProt Q9JJS8 298-685).
T3 construct: range 298-685; Mw 42309 Da; also called rat MASP-2 catalytic fragment
T3 sequence (Q9JJS8 other isoform, or with tags, fused parts or gaps limits assumed, form in doubt): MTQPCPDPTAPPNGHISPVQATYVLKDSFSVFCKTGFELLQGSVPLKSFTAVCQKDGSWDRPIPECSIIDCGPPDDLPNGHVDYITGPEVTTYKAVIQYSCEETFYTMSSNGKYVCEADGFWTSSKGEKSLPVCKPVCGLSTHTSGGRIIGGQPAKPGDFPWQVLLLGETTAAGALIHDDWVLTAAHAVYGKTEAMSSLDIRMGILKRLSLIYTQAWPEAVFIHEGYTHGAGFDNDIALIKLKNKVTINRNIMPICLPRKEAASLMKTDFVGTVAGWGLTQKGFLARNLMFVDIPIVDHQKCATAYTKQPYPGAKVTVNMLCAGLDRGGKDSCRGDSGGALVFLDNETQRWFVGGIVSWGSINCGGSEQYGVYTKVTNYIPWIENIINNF
In words: SPR, target immobilised. In general terms: Surface plasmon resonance follows binding to a sensor surface in real time, without labels.

The target of data set [2] is T4, human MASP-2cf CCP1-CCP2-SP (human, UniProt O00187 298-686, limits assumed).
T4 construct: domain: CCP1-CCP2-SP; also called human MASP-2 catalytic fragment
T4 sequence (O00187 298-686 limits assumed): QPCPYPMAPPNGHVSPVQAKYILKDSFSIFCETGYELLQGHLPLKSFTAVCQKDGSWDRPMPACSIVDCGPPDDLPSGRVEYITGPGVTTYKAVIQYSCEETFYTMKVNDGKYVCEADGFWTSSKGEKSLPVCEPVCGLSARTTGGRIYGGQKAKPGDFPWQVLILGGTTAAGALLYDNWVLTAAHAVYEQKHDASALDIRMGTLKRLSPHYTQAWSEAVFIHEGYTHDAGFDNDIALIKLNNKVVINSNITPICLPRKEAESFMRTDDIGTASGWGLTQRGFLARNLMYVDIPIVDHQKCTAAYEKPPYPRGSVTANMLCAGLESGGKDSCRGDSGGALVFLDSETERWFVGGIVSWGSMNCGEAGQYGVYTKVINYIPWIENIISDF
In words: SPR, target immobilised.

Data set [3] concerns the target T5, human MASP-2 (in normal human serum) (human, UniProt O00187 16-686). Put plainly: cell-based or functional assay.
Data set [4] has as its target rat MASP-2 (in rat serum) (rat, UniProt Q9JJS8 20-685). In words: cell-based or functional assay.
The target in data set [5] is T5, human MASP-2 (in normal human serum). In words: cell-based or functional assay. The source holds these as a separate data set.
Data set [6] concerns the target T3, rat MASP-2cf CCP1-CCP2-SP. In words: enzyme inhibition, tight-binding fit.
In data set [7] the target is T4, human MASP-2cf CCP1-CCP2-SP. In words: enzyme inhibition, tight-binding fit.

Where a chain is given by its changes, count along the chain named. Values joined by “and” are separate entries in the source; they are usually repeats but may differ in a detail not shown here. Equal entries are not always repeated. Where two headings read alike, the source gives them in different places. Bridges are numbered along the chain shown (N, C = ends). Where no end group is shown, it is not given here.

T5 sequence (O00187 16-686 limits assumed): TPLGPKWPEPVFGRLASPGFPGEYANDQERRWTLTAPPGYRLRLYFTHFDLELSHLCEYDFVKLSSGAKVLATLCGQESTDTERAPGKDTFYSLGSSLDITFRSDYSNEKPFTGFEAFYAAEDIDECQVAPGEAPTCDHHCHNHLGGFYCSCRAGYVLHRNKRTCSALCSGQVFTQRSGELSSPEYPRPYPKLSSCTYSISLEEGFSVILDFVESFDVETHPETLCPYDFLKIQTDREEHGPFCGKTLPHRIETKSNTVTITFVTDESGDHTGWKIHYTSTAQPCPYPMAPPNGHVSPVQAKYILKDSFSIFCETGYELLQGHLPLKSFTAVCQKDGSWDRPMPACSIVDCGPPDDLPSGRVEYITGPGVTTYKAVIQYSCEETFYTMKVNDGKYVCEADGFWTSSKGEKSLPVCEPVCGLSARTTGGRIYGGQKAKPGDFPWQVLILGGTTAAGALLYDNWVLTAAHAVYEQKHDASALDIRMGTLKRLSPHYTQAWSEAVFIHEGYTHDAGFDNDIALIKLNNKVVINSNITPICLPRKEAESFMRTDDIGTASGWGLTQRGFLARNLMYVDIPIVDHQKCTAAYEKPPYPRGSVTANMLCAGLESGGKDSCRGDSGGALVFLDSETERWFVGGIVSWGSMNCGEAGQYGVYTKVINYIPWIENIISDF
human MASP-2, sequence (O00187 16-686): as the sequence (O00187 16-686 limits assumed) above
rat MASP-2 (in rat serum), sequence (Q9JJS8 20-685 limits assumed): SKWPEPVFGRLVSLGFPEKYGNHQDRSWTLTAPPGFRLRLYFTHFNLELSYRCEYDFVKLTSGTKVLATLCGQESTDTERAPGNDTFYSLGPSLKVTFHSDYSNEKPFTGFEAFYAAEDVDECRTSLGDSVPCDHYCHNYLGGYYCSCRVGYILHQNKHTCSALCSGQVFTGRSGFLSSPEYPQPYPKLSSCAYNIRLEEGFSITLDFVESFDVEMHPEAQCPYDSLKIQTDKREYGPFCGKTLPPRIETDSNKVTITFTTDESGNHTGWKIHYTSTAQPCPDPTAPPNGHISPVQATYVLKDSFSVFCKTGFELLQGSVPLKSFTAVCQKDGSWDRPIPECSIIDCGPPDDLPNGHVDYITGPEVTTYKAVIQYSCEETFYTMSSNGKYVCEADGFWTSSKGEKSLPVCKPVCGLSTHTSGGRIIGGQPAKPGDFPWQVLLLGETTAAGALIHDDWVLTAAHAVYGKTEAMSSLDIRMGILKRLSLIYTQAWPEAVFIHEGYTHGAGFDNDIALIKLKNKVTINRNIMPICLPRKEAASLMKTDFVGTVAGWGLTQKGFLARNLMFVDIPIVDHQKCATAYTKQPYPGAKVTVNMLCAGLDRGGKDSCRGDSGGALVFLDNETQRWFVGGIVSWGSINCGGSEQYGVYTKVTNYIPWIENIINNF
fXIa, sequence (P03951 19-625 limits assumed): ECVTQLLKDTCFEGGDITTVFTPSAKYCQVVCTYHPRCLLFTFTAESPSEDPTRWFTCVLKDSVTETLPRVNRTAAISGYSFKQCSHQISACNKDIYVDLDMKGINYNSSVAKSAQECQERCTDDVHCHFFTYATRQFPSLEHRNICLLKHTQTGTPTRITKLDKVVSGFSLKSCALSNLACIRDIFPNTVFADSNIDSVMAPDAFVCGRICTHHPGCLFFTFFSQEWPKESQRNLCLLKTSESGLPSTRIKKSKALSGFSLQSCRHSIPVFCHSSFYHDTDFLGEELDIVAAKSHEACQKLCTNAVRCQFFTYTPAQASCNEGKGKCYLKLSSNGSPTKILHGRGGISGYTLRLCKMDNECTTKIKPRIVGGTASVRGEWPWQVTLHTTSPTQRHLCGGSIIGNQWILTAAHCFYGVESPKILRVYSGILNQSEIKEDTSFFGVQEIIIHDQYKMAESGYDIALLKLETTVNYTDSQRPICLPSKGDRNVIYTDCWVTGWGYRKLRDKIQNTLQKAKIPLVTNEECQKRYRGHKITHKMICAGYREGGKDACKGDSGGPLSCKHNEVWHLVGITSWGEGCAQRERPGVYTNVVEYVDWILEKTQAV
rat MASP-2, sequence (Q9JJS8 20-685): as the sequence (Q9JJS8 20-685 limits assumed) above

One may read the Ki as the equilibrium dissociation constant of an inhibitor or competing ligand from its target. Consider “KPDFCFLEEDPGPCRAVKRRYFYNNQTKQCERFKYGGCLGNMNNFETLEECKNICEDG (disulfide 5-55, 14-38, 30-51) [EVO2]”, for which the Ki at human MASP-2 (listed as WO2018127719 with SEQ ID NO: 14) was 7.9 nM; on human MASP-2, ~7 nM; on rat MASP-2, ~7 nM.
Consider “SEQ ID NO: 11 in WO2018127719: highest efficiency human MASP-2 inhibiting Kunitz domain compound of WO2018127719, canonical inhibitory loop sequence GFCRAVKR (KPDFCFLENDPGPCRALKRRYFYNNQTKQCERFYYGGCFGNMNNFETLEECKNICEDG)”, for which the Ki with human MASP-2 is 2 nM; in the data set with rat MASP-2, 640 nM.
Consider “KPDFCFLENDPGPCRALKRRYFYNNQTKQCERFGYGGCLGNMNNFVTLEECKNICEDG (disulfide 5-55, 14-38, 30-51) [EVO21]”, for which the PI in the data set on extrinsic pathway (0.15625 μM) is 10.2 and 10.0; with extrinsic pathway (0.3125 μM), 10.1 and 10.0; in the data set with extrinsic pathway (0.625 μM) it was 10.1 and 10.0; in the data set on extrinsic pathway (1.25 μM), 10.2 and 10.1; in the data set with extrinsic pathway (2.5 μM) it was 10.3 and 10.2; with extrinsic pathway (5 μM), 10.6 and 10.3. Further, the PI in the data set on extrinsic pathway (10 μM) is 11.4 and 11.9. The TT in the data set on thrombin (0.15625 μM) was 17.1 and 17.0; in the data set on thrombin (0.3125 μM), 16.9 and 17.0; in the data set on thrombin (0.625 μM), 16.8 and 16.9; with thrombin (1.25 μM), 16.9 and 17.1; in the data set on thrombin (2.5 μM), 16.4 and 17.4; with thrombin (5 μM), 16.5 and 17.4. In addition, the TT with thrombin (10 μM) was 16.8 and 16.4. In addition, the APTT in the data set on intrinsic pathway (0.15625 μM) was 32.9 and 32.3; in the data set on intrinsic pathway (0.3125 μM), 33.6 and 32.8; in the data set on intrinsic pathway (0.625 μM) it was 34.3 and 33.6; with intrinsic pathway (1.25 μM) it was 37.0 and 34.8; in the data set on intrinsic pathway (2.5 μM) it was 40.0 and 37.1; in the data set with intrinsic pathway (5 μM), 45.6 and 40.1. In addition, the APTT in the data set on intrinsic pathway (10 μM) was 58.7 and 67.6.

B1: EVO21 (designed binder)
chain: KPDFCFLENDPGPCRALKRRYFYNNQTKQCERFGYGGCLGNMNNFVTLEECKNICEDG
modifications: not fully specified; ends and bridges not checked
notes: Modified TFPI-D2 Kunitz domain; made as m1
In general, Kd refers to the constant that tells how readily two partners part at equilibrium. A higher Kd goes with a looser complex. One may read the koff as the rate constant with which the complex falls apart. Lower therefore signals a long-lived complex. What is called kon is the rate constant with which the complex forms. High values mean faster complex formation, low ones slower complex formation. For the molecule B1, the “IC50, enzyme activity on synthetic substrate” value (shortened to “IC50, enzyme activity”) in the data set with fIXa was 28000 nM. Moreover, the “IC50, enzyme activity” value with MASP-1 was 13000 nM. In addition, in the data set with fXIIa, the “IC50, enzyme activity” value is 10500 nM. In addition, in the data set with fXIa, the “IC50, enzyme activity” value stood at 800 nM. In [1], this molecule had a Kd of 0.082 nM, a Relative affinity of 44.1 fold vs EVO2, a koff of 4.49e-05 s⁻¹ and a kon of 545000 M⁻¹ s⁻¹. Besides, in data set [2], the Kd amounted to 0.037 nM, the Relative affinity was 48 fold vs EVO2, the koff stood at 4.92e-05 s⁻¹ and the kon turned out to be 1.32e+06 M⁻¹ s⁻¹. Further, in [3], the “IC50, lectin pathway C4 deposition, human serum” value (“IC50 … human serum” for short) was 5.7 nM and the “Relative potency, lectin pathway, human serum” value (shortened to “Relative potency … human serum”) was determined as 24.1 fold vs EVO2. Also, in data set [4], the “IC50, lectin pathway C4 deposition, rat serum” value (from here on “IC50 … rat serum”) worked out at 10.9 nM and the “Relative potency, lectin pathway, rat serum” value (“Relative potency … rat serum” for short) turned out to be 9.8 fold vs EVO2. In [5], the “Relative potency (relative human lectin pathway inhibitory efficiency compared to EVO2)” value was 24 fold relative to EVO2.

B2: EVO214 (designed binder)
chain: B1 chain with R19L
modifications: not fully specified; ends and bridges not checked
notes: as for B1
Consider B2, for which, in the data set with fIXa, the “IC50, enzyme activity” value came to 24000 nM. Besides, the “IC50, enzyme activity” value with MASP-1 worked out at 9600 nM. Moreover, the “IC50, enzyme activity” value with fXIIa was 3700 nM. The “IC50, enzyme activity” value with fXIa amounted to 200 nM. In addition, in [1], the equilibrium dissociation constant (Kd) stood at 0.117 nM, the Relative affinity stood at 31 fold vs EVO2, the koff is 7.19e-05 s⁻¹ and the kon came out at 614000 M⁻¹ s⁻¹. In data set [2], this molecule had a Kd of 0.038 nM, a Relative affinity of 47.6 fold vs EVO2, a koff of 4.78e-05 s⁻¹ and a kon of 1.27e+06 M⁻¹ s⁻¹. Besides, in [3], the “IC50 … human serum” value is 4.3 nM and the “Relative potency … human serum” value came to 32.4 fold vs EVO2. Also, in data set [4], the “IC50 … rat serum” value is 11.2 nM and the “Relative potency … rat serum” value worked out at 9.5 fold vs EVO2.

B3: EVO23 (designed binder)
chain: B1 chain with G34Y, L39F
modifications: not fully specified; cysteine pairing not given here
notes: as for B1
Regarding B3, the “IC50, enzyme activity” value with fIXa was found to be 2600 nM. Further, the “IC50, enzyme activity” value in the data set with MASP-1 turned out to be 6500 nM. Besides, in the data set with fXIIa, the “IC50, enzyme activity” value is 3300 nM. Further, in the data set with fXIa, the “IC50, enzyme activity” value worked out at 500 nM. In data set [1], the Kd stood at 0.674 nM, the Relative affinity came to 5.4 fold vs EVO2, the koff worked out at 0.000662 s⁻¹ and the kon worked out at 982000 M⁻¹ s⁻¹. In data set [2], this molecule came in with a Kd of 0.094 nM, a Relative affinity of 19.1 fold vs EVO2, a koff of 0.000197 s⁻¹ and a kon of 2.1e+06 M⁻¹ s⁻¹. Further, in data set [3], the “IC50 … human serum” value was found to be 2.9 nM and the “Relative potency … human serum” value amounted to 47.1 fold vs EVO2. Moreover, in [4], the “IC50 … rat serum” value was found to be 8.1 nM and the “Relative potency … rat serum” value worked out at 13.1 fold vs EVO2.

B4: EVO24 (designed binder)
chain: B1 chain with G34Y, V46E
modifications: not fully specified; cysteine pairing not given here
notes: as for B1
Take B4: the “IC50, enzyme activity” value in the data set with fIXa stood at 123000 nM. In the data set with MASP-1, the “IC50, enzyme activity” value was 9500 nM. Moreover, the “IC50, enzyme activity” value in the data set with fXIIa is 16100 nM. The “IC50, enzyme activity” value with fXIa is 500 nM. In [1], this molecule had a Kd of 0.289 nM, a Relative affinity of 12.6 fold vs EVO2, a koff of 0.000327 s⁻¹ and a kon of 1.13e+06 M⁻¹ s⁻¹. In data set [2], this molecule yielded a Kd of 0.276 nM, a Relative affinity of 6.5 fold vs EVO2, a koff of 0.000622 s⁻¹ and a kon of 2.25e+06 M⁻¹ s⁻¹. In data set [3], the “IC50 … human serum” value was determined as 7.6 nM and the “Relative potency … human serum” value came to 18.1 fold vs EVO2. Also, in [4], the “IC50 … rat serum” value was 6.6 nM and the “Relative potency … rat serum” value came out at 16.2 fold vs EVO2. The molecule further yielded a Ki in [6] of 0.36 nM. The Ki in [7] came out at 0.34 nM.
